Experiments:
[1] = biological target: 9His-rsLAAO1 (L-amino acid oxidase from Rhizoctonia solani with nine histidine residues as affinity tag) (Rhizoctonia solani); assay: SEC; native 9His-rsLAAO1 on calibrated Superdex 200 Increase 10/300 GL, 50 mM NaH2PO4 pH 8.2, 300 mM NaCl, 0.3 mL/min; without SDS
[2] = biological target: 9His-rsLAAO1 (L-amino acid oxidase from Rhizoctonia solani with nine histidine residues as affinity tag) (Rhizoctonia solani); assay: SEC; 9His-rsLAAO1 activated with 1.5 mM SDS, added to the protein solution before chromatography; Superdex 200 Increase 10/300 GL, 50 mM NaH2PO4 pH 8.2, 300 mM NaCl

9His-rsLAAO1 (L-amino acid oxidase from Rhizoctonia solani with nine histidine residues as affinity tag) (enzyme)
stoichiometry N [1]: 2
stoichiometry N [2]: 2

— PMC6149798
